Test results published in patent US20250114463A1, “LIVER-TARGETED DRUG AND USE THEREOF” (HANMI PHARM. CO., LTD., priority 2021, published 2025).
Bridges are numbered along the chain shown (N, C = ends). Where no end group is shown, it is not given here. [ ]: non-standard residue; d: D form. The star is where a group is joined. Acetyl(2-(4-imidazolyl)) = O=C(Cc1c[nH]cn1)*; Aib = CC(C)(N)C(=O)O

T1: human GIP receptor (human, UniProt P48546 22-466)
T1 sequence (looked up): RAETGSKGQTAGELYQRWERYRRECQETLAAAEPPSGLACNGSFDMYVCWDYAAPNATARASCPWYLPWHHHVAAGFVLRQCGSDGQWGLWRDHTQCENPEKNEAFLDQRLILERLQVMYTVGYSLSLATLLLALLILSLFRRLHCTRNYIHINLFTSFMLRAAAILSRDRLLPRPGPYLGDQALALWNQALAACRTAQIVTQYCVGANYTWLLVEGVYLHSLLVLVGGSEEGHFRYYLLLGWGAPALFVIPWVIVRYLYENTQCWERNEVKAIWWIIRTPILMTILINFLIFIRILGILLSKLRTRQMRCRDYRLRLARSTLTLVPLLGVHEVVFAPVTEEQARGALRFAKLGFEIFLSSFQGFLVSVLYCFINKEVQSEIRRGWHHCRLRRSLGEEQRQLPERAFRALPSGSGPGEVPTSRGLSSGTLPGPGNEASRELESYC


Assays:
Test in all cases: cell-based or functional assay
[1] = target: T1, human GIP receptor
[2] = target: human GLP-1 receptor (human, UniProt P43220 24-463)
[3] = target: human GCG receptor (human, UniProt P47871 26-477)
Chain of human GCG receptor (P47871 26-477): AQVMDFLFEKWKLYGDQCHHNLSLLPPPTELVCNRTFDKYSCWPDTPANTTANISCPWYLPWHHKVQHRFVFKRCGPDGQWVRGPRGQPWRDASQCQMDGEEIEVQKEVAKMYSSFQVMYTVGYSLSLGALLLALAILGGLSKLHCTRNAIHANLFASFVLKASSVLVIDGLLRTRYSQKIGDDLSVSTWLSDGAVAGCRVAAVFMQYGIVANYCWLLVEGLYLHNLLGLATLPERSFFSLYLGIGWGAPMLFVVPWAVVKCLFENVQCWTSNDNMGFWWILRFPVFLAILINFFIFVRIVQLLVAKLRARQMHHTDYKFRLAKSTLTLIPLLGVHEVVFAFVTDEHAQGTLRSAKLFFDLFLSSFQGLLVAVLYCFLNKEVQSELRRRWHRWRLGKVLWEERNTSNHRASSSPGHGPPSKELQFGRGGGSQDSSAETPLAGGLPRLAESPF

Row | Binder | in vitro Activity Compared to Native Peptide (%), vs GIP [1] [%] | in vitro Activity Compared to Native Peptide (%), vs GLP-1 [2] [%] | in vitro Activity Compared to Native Peptide (%), vs Glucagon [3] [%]
1 | Y[Aib]QGTFTSDYSKYLDEKRAKEFVQWLLDHHPSSGQPPPSC-NH2 (bridge 16-20) [triple agonist of SEQ ID NO: 42] | 7.8 | 33.9 | 206
2 | H[Aib]EGTFTSDYSIAMDEIHQKDFVNWLLAQC (bridge 16-20; not fully specified (C-terminus)) [triple agonist of SEQ ID NO: 53] | 1.3 | 161 | 8.4
3 | H[Aib]QGTFTSDYSIAMDEIHQKDFVNWLLAQC (bridge 16-20; not fully specified (C-terminus)) [triple agonist of SEQ ID NO: 55] | 2.4 | 27.1 | 0.7
4 | [Acetyl(2-(4-imidazolyl))][Aib]QGTFTSDYSICMDEKHQKDFVNWLLNTK (bridge 16-20; not fully specified (C-terminus)) [triple agonist of SEQ ID NO: 59] | 4 | 40.3 | < 0.1
5 | HXQGTFTSDVSSYLDGQAAKEFVAWLLKGC (HELM PEPTIDE1{H.[Aib].Q.G.T.F.T.S.D.V.S.S.Y.L.D.G.Q.A.A.K.E.F.V.A.W.L.L.K.G.C.[am]}$$$$V2.0; N-terminus assumed; SMILES CC(C)C[C@H](NC(=O)[C@H](Cc1c[nH]c2ccccc12)NC(=O)[C@H](C)NC(=O)[C@@H](NC(=O)[C@H](Cc1ccccc1)NC(=O)[C@H](CCC(=O)O)NC(=O)[C@H](CCCCN)NC(=O)[C@H](C)NC(=O)[C@H](C)NC(=O)[C@H](CCC(N)=O)NC(=O)CNC(=O)[C@H](CC(=O)O)NC(=O)[C@H](CC(C)C)NC(=O)[C@H](Cc1ccc(O)cc1)NC(=O)[C@H](CO)NC(=O)[C@H](CO)NC(=O)[C@@H](NC(=O)[C@H](CC(=O)O)NC(=O)[C@H](CO)NC(=O)[C@@H](NC(=O)[C@H](Cc1ccccc1)NC(=O)[C@@H](NC(=O)CNC(=O)[C@H](CCC(N)=O)NC(=O)C(C)(C)NC(=O)[C@@H](N)Cc1c[nH]cn1)[C@@H](C)O)[C@@H](C)O)C(C)C)C(C)C)C(=O)N[C@@H](CC(C)C)C(=O)N[C@@H](CCCCN)C(=O)NCC(=O)N[C@@H](CS)C(N)=O) [triple agonist of SEQ ID NO: 6] | < 0.1 | 17 | < 0.1
6 | H[Aib]QGTFTSDYSIAMDEIHQKDFVNWLLNTC (bridge 16-20; not fully specified (C-terminus)) [triple agonist of SEQ ID NO: 57] | 0.3 | 11.7 | < 0.1
7 | H[Aib]QGTFTSDYSKYLDEKRQKEFVQWLLNTKC (bridge 16-20; not fully specified (C-terminus)) [triple agonist of SEQ ID NO: 58] | 0.2 | 39.1 | 2.6
8 | [Acetyl(2-(4-imidazolyl))][Aib]QGTFTSDYSICMDEIHQKDFVNWLLNTK (bridge 16-20; not fully specified (C-terminus)) [triple agonist of SEQ ID NO: 49] | 3.3 | 29.8 | < 0.1
9 | H[Aib]QGTFTSDYSKYLDEKRQKEFVNWLLAQC (bridge 16-20; not fully specified (C-terminus)) [triple agonist of SEQ ID NO: 56] | 0.8 | 57.9 | 4.9
10 | H[Aib]QGTFTSDYSKYLDEKRQKEFVQWLLDTC (bridge 16-20; not fully specified (C-terminus)) [triple agonist of SEQ ID NO: 52] | 0.3 | 44.1 | 7.5
11 | H[Aib]EGTFTSDYSIAMDEIHQKDFVDWLLAEC (bridge 16-20; not fully specified (C-terminus)) [triple agonist of SEQ ID NO: 54] | 0.1 | 30.6 | 1.4
12 | Y[Aib]QGTFTSDYSKYLDEKRAKEFVQWLLDHHCSSGQPPPS-NH2 (bridge 16-20) [triple agonist of SEQ ID NO: 43] | 3.7 | 12.6 | 88.4
13 | H[Aib]QGTFTSDYSKYLDEKRAKEFVQWLLDHHPSSGQPPPSC-NH2 (bridge 16-20) [triple agonist of SEQ ID NO: 50] | 2.7 | 67.4 | 50.5
14 | HGQGTFTSDCSKQLDGQAAQEFVAWLLAGGPSSGAPPPS (not fully specified (C-terminus)) [triple agonist of SEQ ID NO: 44] | < 0.1 | 1.3 | < 0.1
15 | HGQGTFTSDCSKYMDGQAAQDFVAWLLAGGPSSGAPPPS (not fully specified (C-terminus)) [triple agonist of SEQ ID NO: 45] | < 0.1 | 6.6 | < 0.1
16 | HGQGTFTSDCSKYLDEQHAQEFVAWLLAGGPSSGAPPPS (not fully specified (C-terminus)) [triple agonist of SEQ ID NO: 46] | < 0.1 | 1.4 | < 0.1
17 | HGQGTFTSDCSKYLDGQRAQEFVAWLLAGGPSSGAPPPS (not fully specified (C-terminus)) [triple agonist of SEQ ID NO: 47] | < 0.1 | 2.4 | < 0.1
18 | HGQGTFTSDCSKYLDGQRAQDFVNWLLAGGPSSGAPPPS (not fully specified (C-terminus)) [triple agonist of SEQ ID NO: 48] | < 0.1 | 1.5 | < 0.1
19 | HXQGTFTSDKSKYLDECAAQDFVQWLLDGGPSSGAPPPS (HELM PEPTIDE1{H.[Aib].Q.G.T.F.T.S.D.K.S.K.Y.L.D.E.C.A.A.Q.D.F.V.Q.W.L.L.D.G.G.P.S.S.G.A.P.P.P.S.[am]}$$$$V2.0; N-terminus assumed; SMILES CC(C)C[C@H](NC(=O)[C@H](CC(C)C)NC(=O)[C@H](Cc1c[nH]c2ccccc12)NC(=O)[C@H](CCC(N)=O)NC(=O)[C@@H](NC(=O)[C@H](Cc1ccccc1)NC(=O)[C@H](CC(=O)O)NC(=O)[C@H](CCC(N)=O)NC(=O)[C@H](C)NC(=O)[C@H](C)NC(=O)[C@H](CS)NC(=O)[C@H](CCC(=O)O)NC(=O)[C@H](CC(=O)O)NC(=O)[C@H](CC(C)C)NC(=O)[C@H](Cc1ccc(O)cc1)NC(=O)[C@H](CCCCN)NC(=O)[C@H](CO)NC(=O)[C@H](CCCCN)NC(=O)[C@H](CC(=O)O)NC(=O)[C@H](CO)NC(=O)[C@@H](NC(=O)[C@H](Cc1ccccc1)NC(=O)[C@@H](NC(=O)CNC(=O)[C@H](CCC(N)=O)NC(=O)C(C)(C)NC(=O)[C@@H](N)Cc1c[nH]cn1)[C@@H](C)O)[C@@H](C)O)C(C)C)C(=O)N[C@@H](CC(=O)O)C(=O)NCC(=O)NCC(=O)N1CCC[C@H]1C(=O)N[C@@H](CO)C(=O)N[C@@H](CO)C(=O)NCC(=O)N[C@@H](C)C(=O)N1CCC[C@H]1C(=O)N1CCC[C@H]1C(=O)N1CCC[C@H]1C(=O)N[C@@H](CO)C(N)=O) [triple agonist of SEQ ID NO: 41] | < 0.1 | 34.3 | < 0.1
20 | H[Aib]QGTFTSDVSSYLLGQQQKEFIAWLVKGGGPSSGAPPPSC-NH2 [triple agonist of SEQ ID NO: 5] | < 0.1 | 42.1 | < 0.1
21 | H[Aib]QGTFTSDYSKYLDEKRQKEFVQWLLNTC (bridge 16-20; not fully specified (C-terminus)) [triple agonist of SEQ ID NO: 51] | 0.1 | 14.4 | 2
